In patent publication US7125658B2, “Small protein that interacts with a ribonucleotide reductase subunit and uses thereof” (The Trustees of Columbia University in the City of New York, priority 1998, dated 2006):
Ends that are not written are not given here.

Assays:
GAD-SML1 = biological target: T1, GAD-SML1 (Saccharomyces cerevisiae, UniProt Q04964); experiment: yeast two-hybrid assay against GAD-SML1; type: cell-based; parameters: key to HIS3 reporter / ADE2 reporter: + signifies growth on histidine-less and adenine-less media; +/− signifies constructs unable to grow on adenine-less medium but able to give rise to white colonies on YPD medium
T1 construct: expressed in transfected cells; host or cells: S. cerevisiae two-hybrid strain PJ69-4A
T1 sequence (Q04964 1-104): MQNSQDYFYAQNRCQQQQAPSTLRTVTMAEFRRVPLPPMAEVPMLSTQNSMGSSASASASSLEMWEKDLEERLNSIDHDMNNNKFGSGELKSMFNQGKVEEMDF
Source text: (§1) The strains and plasmids for two-hybrid analysis were PJ69-4A, pGBD-C2, pGAD-C2 (James et al., 1996) and pACTII (CLONTECH® Inc.). The primer pair pB-SML1 5′ (SEQ ID NO: 11) and pGBD-SML1 3′ (SEQ ID NO: 13) (Table 4) was used to amplify the SML1 ORF. After digestion with BamHI and PstI, this PCR product was cloned into the BamHI-PstI sites of pGBD-C2 to construct plasmid pWJ728. Similarly, plasmid pWJ684 contains a BamHI fragment from the PCR product of the SML1 ORF generated using the primer pair pB-SML1 5′ and pB-SML1 3′ (SEQ ID NO: 12) (Table 4) and inserted at the BamHI site of pACTII. PCR fragments containing the RNR1 or the RNR2 ORF were generated by primer pairs RNR1-ORF 5′ (SEQ ID NO: 14) and RNR1 3′ (SEQ ID NO: 15) or RNR2-ORF 5′ (SEQ ID NO: 17) and RNR2 3′ (SEQ ID NO: 16) (Table 4). These fragments were cloned into the BamHI-PstI site of pGBD-C2 and pGAD-C2 to construct pWJ731 and pWJ745 or pWJ729 and pWJ746 respectively.
(§2) The GAL1-HIS3 reporter was assayed on SC-HIS-LEU-TRP medium plus 1-2 mM 3-aminotriazole. The GAL2-ADE2 reporter was assayed on SC-ADE-LEU-TRP medium.

GAD-RNR2 = biological target: T2, GAD-RNR2 (Saccharomyces cerevisiae, UniProt P09938); experiment: yeast two-hybrid assay against GAD-RNR2; type: cell-based; parameters: key to HIS3 reporter / ADE2 reporter: + signifies growth on histidine-less and adenine-less media; +/− signifies constructs unable to grow on adenine-less medium but able to give rise to white colonies on YPD medium
T2 construct: expressed in transfected cells; host or cells: S. cerevisiae two-hybrid strain PJ69-4A
T2 sequence (P09938 1-399): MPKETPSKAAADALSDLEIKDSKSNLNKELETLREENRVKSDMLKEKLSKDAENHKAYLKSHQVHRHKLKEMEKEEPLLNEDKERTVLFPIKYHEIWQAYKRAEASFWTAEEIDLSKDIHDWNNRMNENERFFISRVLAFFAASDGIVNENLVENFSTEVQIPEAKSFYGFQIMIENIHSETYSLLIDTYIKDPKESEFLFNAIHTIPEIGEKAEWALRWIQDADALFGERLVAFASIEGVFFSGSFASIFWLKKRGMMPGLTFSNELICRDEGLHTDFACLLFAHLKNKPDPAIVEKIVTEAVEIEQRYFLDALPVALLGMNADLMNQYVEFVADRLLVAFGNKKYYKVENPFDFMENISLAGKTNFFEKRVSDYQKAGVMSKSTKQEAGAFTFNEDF
Source text: as §1, §2

GAD = biological target: T3, GAD (Saccharomyces cerevisiae, UniProt P04386); experiment: yeast two-hybrid assay against GAD alone; type: cell-based
T3 construct: expressed in transfected cells; host or cells: S. cerevisiae two-hybrid strain PJ69-4A
T3 sequence (P04386 768-881 limits assumed): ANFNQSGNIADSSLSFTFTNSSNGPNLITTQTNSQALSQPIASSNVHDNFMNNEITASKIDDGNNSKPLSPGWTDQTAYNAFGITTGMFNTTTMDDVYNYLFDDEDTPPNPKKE
Source text: as §1, §2

[1] = biological target: GAD-Sml1 two-hybrid fusion (plasmid pWJ684, pACTII) (Saccharomyces cerevisiae (yeast)) (UniProt Q04964); experiment: cell-based or functional assay
[2] = biological target: T4, Recombinant yeast Rnr1 protein (large subunit of ribonucleotide reductase) (yeast (Saccharomyces cerevisiae), UniProt P21524 1-888); experiment: cell-based or functional assay
T4 sequence (looked up): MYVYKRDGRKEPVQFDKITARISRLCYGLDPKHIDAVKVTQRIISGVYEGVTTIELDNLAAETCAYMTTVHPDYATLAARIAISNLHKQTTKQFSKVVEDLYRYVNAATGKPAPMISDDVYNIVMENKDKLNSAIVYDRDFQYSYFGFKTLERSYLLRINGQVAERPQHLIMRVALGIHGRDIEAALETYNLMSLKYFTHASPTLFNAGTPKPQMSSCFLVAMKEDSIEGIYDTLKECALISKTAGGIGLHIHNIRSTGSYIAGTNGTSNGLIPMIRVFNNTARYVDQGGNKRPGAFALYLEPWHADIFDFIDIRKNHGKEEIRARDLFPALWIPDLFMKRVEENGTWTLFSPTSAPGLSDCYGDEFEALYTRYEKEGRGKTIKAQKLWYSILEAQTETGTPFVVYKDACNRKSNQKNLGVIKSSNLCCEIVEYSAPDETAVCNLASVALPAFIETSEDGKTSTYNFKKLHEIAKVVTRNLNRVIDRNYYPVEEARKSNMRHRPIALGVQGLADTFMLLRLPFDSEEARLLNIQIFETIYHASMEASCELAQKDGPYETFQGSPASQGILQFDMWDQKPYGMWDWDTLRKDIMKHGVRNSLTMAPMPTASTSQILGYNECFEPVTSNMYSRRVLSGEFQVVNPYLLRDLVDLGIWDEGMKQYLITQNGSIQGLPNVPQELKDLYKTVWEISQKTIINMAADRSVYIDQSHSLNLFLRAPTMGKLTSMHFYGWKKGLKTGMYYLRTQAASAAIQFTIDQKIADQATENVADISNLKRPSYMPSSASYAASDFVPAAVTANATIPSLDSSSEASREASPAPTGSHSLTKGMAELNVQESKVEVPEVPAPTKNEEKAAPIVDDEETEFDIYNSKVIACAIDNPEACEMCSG

GAD-RNR1 = biological target: T5, GAD-RNR1 (Saccharomyces cerevisiae, UniProt P21524); experiment: yeast two-hybrid assay against GAD-RNR1; type: cell-based; parameters: key to HIS3 reporter / ADE2 reporter: + signifies growth on histidine-less and adenine-less media; +/− signifies constructs unable to grow on adenine-less medium but able to give rise to white colonies on YPD medium
T5 construct: expressed in transfected cells; host or cells: S. cerevisiae two-hybrid strain PJ69-4A
T5 sequence (P21524 1-888): T4 sequence (looked up)
Source text: as §1, §2

[3] = biological target: T6, GAD-Sml1 two-hybrid fusion (plasmid pWJ684, pACTII) (Saccharomyces cerevisiae (yeast), UniProt Q04964 1-104); experiment: cell-based or functional assay
T6 sequence: T1 sequence (Q04964 1-104)

[4] = biological target: T7, GAD-Rnr1 two-hybrid fusion (plasmid pWJ745) (yeast (Saccharomyces cerevisiae), UniProt P21524 1-888); experiment: cell-based or functional assay
T7 sequence (looked up): T4 sequence (looked up)

[5] = biological target: T8, GAD (Gal4 activation domain alone, empty vector control) (UniProt P04386 768-881); experiment: cell-based or functional assay
T8 sequence (looked up): T3 sequence (P04386 768-881 limits assumed)

[6] = SC-HIS-LEU-TRP plus 3-aminotriazole

## RNR2: GBD (Gal4 DNA binding domain) fusion of the RNR2 ORF in pGBD-C2, two-hybrid construct (GAFTFNEDF)
GAD-SML1
  LacZ activity: 0.9 ± 0.4 Miller Units
GAD-RNR2
  LacZ activity: 2.3 ± 0.4 Miller Units
GAD-RNR2; SC-ADE-LEU-TRP
  ADE2 reporter: +/−
GAD-RNR2; [6]
  HIS3 reporter: +
GAD
  LacZ activity: 1.4 ± 0.1 Miller Units

## GBD vector (Gal4 DNA binding domain alone, empty vector control) (from UniProt P04386 1-147)
[1]
  two-hybrid LacZ activity: 0.4 Miller Units

## Ac-QGKVEEMDF [N-acetylated nonapeptide corresponding to the last 9 amino acids of Sml1p]
[2]
  IC50, in vitro yeast RNR assay: ~300 µM

B1: RNR1: GBD (Gal4 DNA binding domain) fusion of the RNR1 ORF in pGBD-C2, two-hybrid construct (protein)
chain: T4 sequence (looked up)
GAD-SML1
  LacZ activity: 85 ± 1 Miller Units
GAD-SML1; SC-ADE-LEU-TRP
  ADE2 reporter: +
GAD-SML1; [6]
  HIS3 reporter: +
GAD-RNR1
  LacZ activity: 2.9 ± 0.5 Miller Units
GAD-RNR1; SC-ADE-LEU-TRP
  ADE2 reporter: +/−
GAD-RNR1; [6]
  HIS3 reporter: +
GAD
  LacZ activity: 0.8 ± 0.2 Miller Units

## Ac-GAFTFNEDF [N-acetylated nonapeptide corresponding to the last 9 amino acids of Rnr2p]
[2]
  IC50, in vitro yeast RNR assay: 44 µM

B2: GBD-Rnr1 two-hybrid fusion (plasmid pWJ731) (other, UniProt P04386 1-147, looked up)
chain: MKLLSSIEQACDICRLKKLKCSKEKPKCAKCLKNNWECRYSPKTKRSPLTRAHLTEVESRLERLEQLFLLIFPREDLDMILKMDSLQDIKALLTGLFVQDNVNKDAVTDRLASVETDMPLTLRQHRISATSSSEESSNKGQRQLTVSMYVYKRDGRKEPVQFDKITARISRLCYGLDPKHIDAVKVTQRIISGVYEGVTTIELDNLAAETCAYMTTVHPDYATLAARIAISNLHKQTTKQFSKVVEDLYRYVNAATGKPAPMISDDVYNIVMENKDKLNSAIVYDRDFQYSYFGFKTLERSYLLRINGQVAERPQHLIMRVALGIHGRDIEAALETYNLMSLKYFTHASPTLFNAGTPKPQMSSCFLVAMKEDSIEGIYDTLKECALISKTAGGIGLHIHNIRSTGSYIAGTNGTSNGLIPMIRVFNNTARYVDQGGNKRPGAFALYLEPWHADIFDFIDIRKNHGKEEIRARDLFPALWIPDLFMKRVEENGTWTLFSPTSAPGLSDCYGDEFEALYTRYEKEGRGKTIKAQKLWYSILEAQTETGTPFVVYKDACNRKSNQKNLGVIKSSNLCCEIVEYSAPDETAVCNLASVALPAFIETSEDGKTSTYNFKKLHEIAKVVTRNLNRVIDRNYYPVEEARKSNMRHRPIALGVQGLADTFMLLRLPFDSEEARLLNIQIFETIYHASMEASCELAQKDGPYETFQGSPASQGILQFDMWDQKPYGMWDWDTLRKDIMKHGVRNSLTMAPMPTASTSQILGYNECFEPVTSNMYSRRVLSGEFQVVNPYLLRDLVDLGIWDEGMKQYLITQNGSIQGLPNVPQELKDLYKTVWEISQKTIINMAADRSVYIDQSHSLNLFLRAPTMGKLTSMHFYGWKKGLKTGMYYLRTQAASAAIQFTIDQKIADQATENVADISNLKRPSYMPSSASYAASDFVPAAVTANATIPSLDSSSEASREASPAPTGSHSLTKGMAELNVQESKVEVPEVPAPTKNEEKAAPIVDDEETEFDIYNSKVIACAIDNPEACEMCSG
[3]
  two-hybrid LacZ activity: 85 Miller Units
[4]
  two-hybrid LacZ activity: 2.9 Miller Units
[5]
  two-hybrid LacZ activity: 0.8 Miller Units

## Ac-KEINFDDDF [N-acetylated nonapeptide corresponding to the last 9 amino acids of Rnr4p]
[2]
  IC50, in vitro yeast RNR assay: 30 µM
